Assay results: US20190359693A1 (Janssen / Centocor, published 2019)
Like-named read-outs stand apart in the source and are kept apart here.

B1: SD1046 (VHH)
VHH: EVQLVESGGGLVQAGDSLRISCAASGRTLSIYSMGWFRQAPGKEREFVATIGWNSGRTFYPDSLKGRFTISRDNARNTLYLQMNNLRPEDTAVYYCAAAKGPLRLSSQADYWGQGTQVTVSS
B2: SD1036 (VHH)
VHH: EVQLVESGGGLVQAGGSLKLSCAASGRTYAMGWFRQAPGKEREFVAHINALGTRTYYSDSVKGRFTISRDNAKNTEYLEMNNLKPEDTAVYYCTAQGQWRAAPVAVAAEYEFWGQGTQVTVSS
notes: llama sdAb
B3: SD1038 (VHH)
VHH: EVQLVESGGGLVQPGGSLRLSCAVSISIFDIYAMDWYRQAPGKQRDLVATSFRDGSTNYADSVKGRFTISRDNAKNTLYLQMNSLKPEDTAVYLCHVSLYRDPLGVAGGMGVYWGKGALVTVSS
notes: llama sdAb

Columns and labels:
Experiment in all cases: cell-based or functional assay
[1] = molecular target: HA of H3N2 A/HK/1/68 (R201G, L331I, E443K) (influenza A virus)
[2] = molecular target: HA of H3N2 A/HK/1/68 (G379R) (influenza A virus)
[3] = molecular target: HA of H3N2 A/HK/1/68 (I395V) (influenza A virus)
[4] = molecular target: HA of H3N2 A/HK/1/68 (N85, E443K) (influenza A virus)
[5] = molecular target: HA of H3N2 A/HK/1/68 (D375N, I395V) (influenza A virus)
[6] = molecular target: HA of H3N2 A/HK/1/68 (E443K) (influenza A virus)
[7] = molecular target: HA of H3N2 A/HK/1/68 (L331I, E443K) (influenza A virus)
[8] = molecular target: HA of H3N? A/Env/MPJ193/09 (influenza A virus)
[9] = molecular target: HA of H3N? A/Env/MPJ193/09 (influenza A virus); remark: listed apart in the source

| Binder | VNA titer [1] [nM] | VNA titer [2] [nM] | VNA titer [3] [nM] | VNA titer [4] [nM] | VNA titer [5] [nM] | VNA titer [6] [nM] | VNA titer [7] [nM] | VNA titer [8] [nM] | VNA titer [9] [nM] |
| --- | --- | --- | --- | --- | --- | --- | --- | --- | --- |
| B1 | 339 | 571 | > 1000 | 202 | > 1000 | 202 | 202 |  |  |
| B2 | > 1000 | > 1000 | > 1000 | > 1000 | > 1000 | > 1000 | > 1000 | 41 |  |
| B3 |  |  |  |  |  |  |  |  | 185 |
